Key:
[1] = molecular target: Hsc70/Hsp70; test: co-immunoprecipitation with anti-Flag agarose, densitometry of co-precipitated Hsc/Hsp70; settings: HEK293 cells, transient transfection; mean + SEM, N = 3; parent: 100; read off a plot
[2] = molecular target: HA-tagged glucocorticoid receptor (GR) (UniProt P04150); test: co-immunoprecipitation with anti-Flag agarose, Western blot densitometry; settings: HEK293 cells, transient transfection, mean + SEM, N = 3, parent: 100, read off a plot
[3] = molecular target: Hsc70, in vitro translated and labeled (UniProt P11142)
UniProt P11142, sequence (P11142 whole entry): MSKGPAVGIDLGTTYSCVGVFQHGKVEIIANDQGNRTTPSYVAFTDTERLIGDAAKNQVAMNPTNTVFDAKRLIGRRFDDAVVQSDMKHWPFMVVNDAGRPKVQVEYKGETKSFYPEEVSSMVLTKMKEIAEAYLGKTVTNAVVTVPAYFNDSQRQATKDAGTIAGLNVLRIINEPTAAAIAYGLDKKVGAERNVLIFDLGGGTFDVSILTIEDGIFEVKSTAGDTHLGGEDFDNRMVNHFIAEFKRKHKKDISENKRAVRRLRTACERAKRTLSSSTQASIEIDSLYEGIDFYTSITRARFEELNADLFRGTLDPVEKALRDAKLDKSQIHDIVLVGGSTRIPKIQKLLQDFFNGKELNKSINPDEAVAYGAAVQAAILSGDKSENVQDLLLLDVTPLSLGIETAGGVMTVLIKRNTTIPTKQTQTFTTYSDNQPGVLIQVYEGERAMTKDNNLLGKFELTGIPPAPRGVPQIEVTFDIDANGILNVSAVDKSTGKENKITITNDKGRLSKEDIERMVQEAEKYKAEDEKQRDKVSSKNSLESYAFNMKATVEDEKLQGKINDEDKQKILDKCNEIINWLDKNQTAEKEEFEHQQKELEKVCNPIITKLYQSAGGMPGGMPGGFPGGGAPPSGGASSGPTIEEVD

UniProt P04150, sequence (P04150 whole entry): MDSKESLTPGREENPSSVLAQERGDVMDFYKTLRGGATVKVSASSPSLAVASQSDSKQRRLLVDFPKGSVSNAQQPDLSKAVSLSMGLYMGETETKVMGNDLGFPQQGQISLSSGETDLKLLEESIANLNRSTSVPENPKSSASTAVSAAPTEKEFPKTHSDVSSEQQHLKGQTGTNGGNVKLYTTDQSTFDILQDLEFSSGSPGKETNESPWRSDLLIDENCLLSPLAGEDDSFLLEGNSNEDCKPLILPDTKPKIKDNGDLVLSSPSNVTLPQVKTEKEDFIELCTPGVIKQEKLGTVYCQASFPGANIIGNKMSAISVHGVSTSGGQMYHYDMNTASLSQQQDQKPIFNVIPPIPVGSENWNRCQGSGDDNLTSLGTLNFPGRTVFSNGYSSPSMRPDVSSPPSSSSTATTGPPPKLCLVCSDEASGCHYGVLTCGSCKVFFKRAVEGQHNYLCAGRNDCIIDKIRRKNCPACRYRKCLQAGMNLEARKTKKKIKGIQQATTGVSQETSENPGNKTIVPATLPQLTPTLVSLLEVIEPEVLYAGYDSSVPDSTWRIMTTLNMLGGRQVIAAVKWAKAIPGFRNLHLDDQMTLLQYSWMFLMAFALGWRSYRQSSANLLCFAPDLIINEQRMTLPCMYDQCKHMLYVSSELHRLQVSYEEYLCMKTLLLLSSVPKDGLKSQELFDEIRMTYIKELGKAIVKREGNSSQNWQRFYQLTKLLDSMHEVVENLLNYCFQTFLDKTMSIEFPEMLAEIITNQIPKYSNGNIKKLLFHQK

Question: Which percent of parent (% (BAG-1M = 100%)) [1] does the source give for “Flag-tagged wild-type Bcl2-associated athanogene 1, medium isoform (BAG-1M) R237A” here?
Answer: 6

Question: And the percent of parent (% (BAG-1M = 100%)) [2]?
Answer: 18

B1: purified HspBP1_mut (A137R, K249A; His-tagged) (natural protein)
chain: MSDEGSRGSRLPLALPPASQGCSSGGGGGGSSAGGSGNSRPPRNLQGLLQMAITAGSEEPDPPPEPMSEERRQWLQEAMSAAFRGQREEVEQMKSCLRVLSQPMPPTAGEAEQAADQQEREGALELLADLCENMDNRADFCQLSGMHLLVGRYLEAGAAGLRWRAAQLIGTCSQNVAAIQEQVLGLGALRKLLRLLDRDACDTVRVKALFAISCLVREQEAGLLQFLRLDGFSVLMRAMQQQVQKLKVASAFLLQNLLVGHPEHKGTLCSMGMVQQLVALVRTEHSPFHEHVLGALCSLVTDFPQGVRECREPELGLEELLRHRCQLLQQHEEYQEELEFCEKLLQTCFSSPADDSMDR
Question: How did the ATPase activity of purified Hsc70 with DJA2 and HspBP1 mut (each 4 µM, 30°C) [3] turn out when B1 was run?
Answer: 7.26 min⁻¹

From PMC3891853
